From article PMC2974046

How the values were obtained:
Test in all cases: purified protein
[1] = tested on: NC(=O)/C=C/C(=O)NC[C@H](N)C(=O)O; format: biochemical, Pantoea agglomerans; settings: adenylation (A) domain, ATP, Mg2+, pH 7.5, room temperature
[2] = tested on: NC(=O)[C@@H]1O[C@H]1C(=O)NC[C@H](N)C(=O)O; settings: 5 mM L-valine, 10 mM ATP, 12 mM MgCl2, HEPES pH 8, room temperature
[3] = tested on: NC(=O)/C=C/C(=O)NC[C@H](N)C(=O)O; settings: 5 mM L-valine, 10 mM ATP, 12 mM MgCl2, HEPES pH 8, room temperature

Substance	Km [1] [µM]	kcat [1] [s⁻¹]	Km [2] [µM]	kcat [2] [s⁻¹]	kcat/Km [2] [M⁻¹ s⁻¹]	Km [3] [µM]	kcat [3] [s⁻¹]	kcat/Km [3] [M⁻¹ s⁻¹]
DdaD (Pantoea agglomerans)	420 ± 80	1.07 ± 0.083	–	–	–	–	–	–
DdaF (Pantoea agglomerans)	–	–	53 ± 7	3.02 ± 0.117	56700	72 ± 34	0.35 ± 0.05	4830
